Literature values in patent publication US20240269065A1, “Implantable Device for Release of Glucagon-Like Peptide-1 Receptor Agonist” (Celanese EVA Performance Polymers LLC, priority 2023, published 2024).

Target: GLP-1 receptor (Homo sapiens, UniProt P43220)
Conditions: in vitro studies; compared with native GLP-1 and exenatide

GLP-1 receptor, sequence (P43220 24-463, species assumed): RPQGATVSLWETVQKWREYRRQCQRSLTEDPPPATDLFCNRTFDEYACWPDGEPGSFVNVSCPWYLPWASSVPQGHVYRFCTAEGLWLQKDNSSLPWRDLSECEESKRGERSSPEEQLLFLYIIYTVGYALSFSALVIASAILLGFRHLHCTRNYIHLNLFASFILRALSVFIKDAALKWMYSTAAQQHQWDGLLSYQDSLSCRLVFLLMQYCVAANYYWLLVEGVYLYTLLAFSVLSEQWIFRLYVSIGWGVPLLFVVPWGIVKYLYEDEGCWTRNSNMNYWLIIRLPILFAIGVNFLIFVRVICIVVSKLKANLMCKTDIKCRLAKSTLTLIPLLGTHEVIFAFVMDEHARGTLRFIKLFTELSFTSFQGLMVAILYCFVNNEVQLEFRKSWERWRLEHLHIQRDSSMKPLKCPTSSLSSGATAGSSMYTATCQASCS

For Lixisenatide, the “affinity for the GLP-1 receptor relative to native GLP-1 and exenatide” value is listed as “four times greater affinity”.
